Measured values from paper PMC8666677 (The Journal of Biological Chemistry, 2021).
No end group written: not given here. fl = not defined here

T1: ClpS adapter (E. coli, UniProt P0A8Q6 1-106)
T1 sequence: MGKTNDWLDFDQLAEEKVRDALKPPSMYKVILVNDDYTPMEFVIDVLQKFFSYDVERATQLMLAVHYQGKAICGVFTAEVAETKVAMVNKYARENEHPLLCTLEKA


Legend:
[1] = target: ^D1-3YAClpA^xl (cross-linked ClpA pseudohexamer with alternating WT and defective D1 pore loops) (E. coli) (UniProt P0ABH9)
ClpS adapter = target: T1, ClpS adapter; test: fluorescence polarisation

| Molecule | KM of ClpAP degradation of ^UFtitin-ssrA, against ClpA^xl [1] | binding result (ClpS adapter) |
| --- | --- | --- |
| ^UFtitin-ssrA (ssrA-tagged titin^I27 domain unfolded by chemical modification of its two partially buried cysteines) (domain or fragment) | 3 fold |  |
| LLYVQRDSKEC-fl (reading uncertain; also: printed as LLYVQRDSKEC-fl) [LLYVQRDSKEC-fl fluorescent N-degron peptide] |  | binds |
